# B1: PTPN4-PDZ (residues G499-N604) (other)
# chain: GSPEKPTPNGGIPHDNLVLIRMKPDENGRFGFNVKGGYDQKMPVIVSRVAPGTPADLCVPRLNEGDQVVLINGRDIAEHTHDQVVLFIKASCERHSGELMLLVRPN
# notes: range 500-604; also called PDZ of PTPN4; PTPN4 PDZ domain
# Experiments:
# Cyto13-vir [1] = target: T1, Cyto13-vir (rabies virus (CVS-NIV RABV strain)); experiment: NMR titration, 15N-labeled PTPN4-PDZ with unlabeled peptide
# DARL-13 = DARL-13 (rabies virus (vampire bat RABV strain)); experiment: as above
# Cyto13-vir [2] = target: T1, Cyto13-vir; experiment: NMR titration (rounded value in the text)
binder,measurement,setting,value
B1,Kd,Cyto13-vir [1],568 µM
same,Kd,DARL-13,1280 µM
same,Kd,Cyto13-vir [2],560 µM

# From patent US20140302123A1 (INSTITUT PASTEUR, published 2014)
